{
  "source": "paper PMC4749439",
  "about": "(Cell metabolism, 2015)",
  "binders": {"B1": {"name": "S^35-labeled FLAG-tagged SDHAF1 wild type (in vitro) (natural protein, human, UniProt A6NFY7 1-115, looked up)", "chain": "MSRHSRLQRQVLSLYRDLLRAGRGKPGAEARVRAEFRQHAGLPRSDVLRIEYLYRRGRRQLQLLRSGHATAMGAFVRPRAPTGEPGGVGCQPDDGDSPRNPHDSTGAPETRPDGR", "modifications": "S^35 label"}, "B2": {"name": "SDHAF1 second LYR to triple alanines (in vitro) (natural protein, human, UniProt A6NFY7 1-115, looked up)", "chain": "B1 chain with L53A, Y54A, R55A", "modifications": "S^35 label"}, "B3": {"name": "SDHAF1 G57R (in vitro) (natural protein, human, UniProt A6NFY7 1-115, looked up)", "chain": "B1 chain with G57R", "modifications": "S^35 label"}, "B4": {"name": "SDHAF1 clone 1 (residues 1–39) (domain or fragment, human, UniProt A6NFY7 1-39, looked up)", "chain": "MSRHSRLQRQVLSLYRDLLRAGRGKPGAEARVRAEFRQH", "modifications": "also: 35S label"}, "B5": {"name": "SDHAF1 clone 3 (residues 1–35) (domain or fragment, human, UniProt A6NFY7 1-35, looked up)", "chain": "MSRHSRLQRQVLSLYRDLLRAGRGKPGAEARVRAE", "modifications": "also: 35S label"}, "B6": {"name": "SDHAF1 clone 2 (residues 40–115) (domain or fragment, human, UniProt A6NFY7 40-115, looked up)", "chain": "AGLPRSDVLRIEYLYRRGRRQLQLLRSGHATAMGAFVRPRAPTGEPGGVGCQPDDGDSPRNPHDSTGAPETRPDGR", "modifications": "S^35 label"}, "B7": {"name": "SDHAF1 clone 4 (residues 50–115) (domain or fragment, human, UniProt A6NFY7 50-115, looked up)", "chain": "IEYLYRRGRRQLQLLRSGHATAMGAFVRPRAPTGEPGGVGCQPDDGDSPRNPHDSTGAPETRPDGR", "modifications": "also: 35S label"}, "B8": {"name": "SDHAF1 clone 5 (residues 61–115) (domain or fragment, human, UniProt A6NFY7 61-115, looked up)", "chain": "LQLLRSGHATAMGAFVRPRAPTGEPGGVGCQPDDGDSPRNPHDSTGAPETRPDGR", "modifications": "also: 35S label"}, "B9": {"name": "SDHB146-218 (domain or fragment, human, UniProt P21912 146-218, looked up)", "chain": "FYAQYKSIEPYLKKKDESQEGKQQYLQSIEEREKLDGLYECILCACCSTSCPSYWWNGDKYLGPAVLMQAYRW"}},
  "assay_in_all_cases": "pull-down",
  "key": {"S^35-HSC20": {"molecular_target": "T1, S^35-HSC20 (UniProt Q8IWL3 1-235, S^35 label)", "T1 sequence (looked up)": "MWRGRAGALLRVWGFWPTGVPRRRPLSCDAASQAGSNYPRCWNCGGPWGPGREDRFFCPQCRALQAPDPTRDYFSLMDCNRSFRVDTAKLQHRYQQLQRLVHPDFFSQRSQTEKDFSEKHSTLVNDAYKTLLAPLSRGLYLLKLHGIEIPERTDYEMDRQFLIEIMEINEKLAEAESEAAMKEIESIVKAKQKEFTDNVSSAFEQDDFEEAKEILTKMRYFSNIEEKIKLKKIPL"}, "S^35-SDHB": {"molecular_target": "T2, S^35-SDHB (human, UniProt P21912 1-280, S^35 label)", "T2 sequence (looked up)": "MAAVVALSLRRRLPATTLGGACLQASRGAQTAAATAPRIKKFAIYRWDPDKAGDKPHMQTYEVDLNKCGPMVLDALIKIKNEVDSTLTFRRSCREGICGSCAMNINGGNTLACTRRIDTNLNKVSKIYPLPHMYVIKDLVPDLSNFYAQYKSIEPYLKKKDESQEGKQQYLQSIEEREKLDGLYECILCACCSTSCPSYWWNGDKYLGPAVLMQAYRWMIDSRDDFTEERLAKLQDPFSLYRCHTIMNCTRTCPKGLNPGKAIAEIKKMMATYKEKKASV"}, "[1]": {"molecular_target": "B1"}},
  "note": "Positions count from the first letter of the chain named. Numbers in names are those of the source. No end group written: not given here.",
  "data": [
    {"binder": "B1", "values": [
      {"measurement": "binding result", "setting": "S^35-HSC20", "value": "binds"}
    ]},
    {"binder": "B2", "values": [
      {"measurement": "binding result", "setting": "S^35-HSC20", "value": "binds"}
    ]},
    {"binder": "B3", "values": [
      {"measurement": "binding result", "setting": "S^35-HSC20", "value": "binds"}
    ]},
    {"binder": "B4", "values": [
      {"measurement": "binding result", "setting": "S^35-HSC20", "value": "binds"}
    ]},
    {"binder": "B5", "values": [
      {"measurement": "binding result", "setting": "S^35-HSC20", "value": "binds"}
    ]},
    {"binder": "B6", "values": [
      {"measurement": "binding result", "setting": "S^35-SDHB", "value": "binds"}
    ]},
    {"binder": "B7", "values": [
      {"measurement": "binding result", "setting": "S^35-SDHB", "value": "binds"}
    ]},
    {"binder": "B8", "values": [
      {"measurement": "binding result", "setting": "S^35-SDHB", "value": "binds"}
    ]},
    {"binder": "B9", "values": [
      {"measurement": "binding result", "setting": "[1]", "value": "binds"}
    ]}
  ]
}
